From article doi:10.1101/2025.08.30.673231
Where “and” joins values, the source holds several entries; their conditions need not be identical. Identical values can stand only once.

Assays:
[1] = biological target: Pichia pastoris Pex5 full length (tag removed) (Pichia pastoris) (UniProt P33292); test: ITC
[2] = biological target: Pichia pastoris Pex5 full length (tag removed) (Pichia pastoris) (UniProt P33292); test: SEC-SAXS
[3] = biological target: Pichia pastoris Pex5 CTD (residues 259-576, tag removed) (Pichia pastoris) (UniProt P33292); test: SEC-SAXS
[4] = biological target: Pichia pastoris Pex5 NTD (residues 1-276, tag removed) (Pichia pastoris) (UniProt P33292); test: SEC-SAXS
[5] = biological target: 6xHis-GST-tagged Pichia pastoris Pex5 NTD (residues 1-276) (Pichia pastoris) (UniProt P33292); test: BLI
[6] = biological target: 6xHis-GST-tagged Pichia pastoris Pex5 CTD (residues 259-576) (Pichia pastoris) (UniProt P33292); test: BLI
[7] = biological target: Pex5 NTD variants (the Pex5 single E57R mutant and the double mutants R45E/R48E and M61A/F64A); test: BLI
[8] = biological target: 6xHis-GST-tagged Pichia pastoris Pex5 full length (Pichia pastoris) (UniProt P33292); test: BLI

stoichiometry N [1] | stoichiometry N [2] | stoichiometry N [3] | stoichiometry N [4] | Kd [5] | Kd [6] | fold increase in KD against Pex5 NTD WT [7] | Kd [8] | Substance
1 | 1 | 1 | 1 | 683 nM | 4400 nM | 6 fold and 8 fold | 78 nM | Pichia pastoris Pex8 (residues 33-713), N-terminally truncated (domain or fragment)
 |  |  |  |  |  |  | 478 nM | Pichia pastoris Pex8 (ΔPTS1) (domain or fragment)
